Five molecules from US20220064250A1 (AKSTON BIOSCIENCES, published 2022) can be followed below.

The target of experiment [1] is T1, human insulin receptor on human IM-9 cells (human, UniProt P06213 28-1382).
T1 construct: whole, on cells; Endogenous receptor on IM-9 cells; assay run at 4 C; also called IR
Nature of the experiment: IM-9 cells, competition with biotinylated RHI, flow cytometry, 4 C (Table 5, same data as Table 9). As to the method:
(§1) Cultures of IM-9 cells were centrifuged at 250×g (˜1000 rpm) for 10 min to pellet the cells. Cells were washed once with HBSS or PBS buffer, resuspended in cold FACS staining medium (HBSS/2 mM EDTA/0.1% Na-azide+4% horse serum) to a concentration of 8×10^6 cells/mL and kept on ice or 4° C. until test solutions were made. The insulin-Fc protein was diluted in FACS buffer in 1:3 serial dilutions as 2× concentrations in 1.2 mL tubes (approx. 60 μL volume of each dilution), and the solutions were kept cold on ice until ready for pipetting.
(§2) Biotinylated-RHI was diluted in FACS staining medium to a concentration of 1.25 μg/mL. 40 μL of the serially diluted test compound and 8 μL of 1.25 μg/mL Biotin-RHI were added into each well of a V bottom microtiter plate, mixed by slow vortexing, and placed on ice. […]
(§3) The V-bottom plates containing cells were then analyzed on a Guava 8-HT flow cytometer (Millipore). Biotinylated-RHI binding to insulin receptor was quantitated by the median fluorescence intensity (MFI) of the cells on the FACS FL-2 channel for each concentration of the test compound. […] The % inhibition by test compounds of biotinylated-RHI binding on IM-9 cells was plotted against log concentrations of the test compound, and the resulting IC50 values were calculated using GraphPad Prism (GraphPad Software, La Jolla, Calif.) for the test compounds.
In general terms: Flow cytometry measures light scatter and fluorescence of single cells or particles in a stream.

Experiment [2] deals with T1, human insulin receptor on human IM-9 …. Nature of the experiment: IM-9 cells, competition with biotinylated RHI, flow cytometry, 4 C. As to the method:
as §1, §2, §3

For experiment [3] the target is unchanged. Described as above. As to the method: (§4) 40 μL of an IM-9 cell suspension (8×10^6 cells/mL) was then added to each well by multichannel pipette, mixed again gently and incubated on ice for 30 min to allow competitive binding on the insulin receptor on IM-9 cells. Cells were then washed twice with 275 μL of ice-cold FACS wash buffer (HBSS/2 mM EDTA/0.1% Na-azide+0.5% horse serum) by centrifuging the V-bottom plate at 3000 rpm for 3 min and aspirating the supernatant. Cells were then resuspended in 40 μL of FACS staining medium containing 1:100 diluted Streptavidin-PE (Life Technologies) for 20 min on ice. Cells were then washed once with 275 μL of ice-cold FACS buffer and finally fixed with 3% paraformaldehyde for 10 min at room temp. Cells were then washed once with 275 μL of ice-cold FACS buffer and resuspended in 250 μl of FACS buffer for analysis.
The V-bottom plates containing cells were then analyzed on a Guava 8-HT flow cytometer (Millipore). Biotinylated-RHI binding to insulin receptor was quantitated by the median fluorescence intensity (MFI) of the cells on the FACS FL-2 channel for each concentration of the test compound. […] The % inhibition by test compounds of biotinylated-RHI binding on IM-9 cells was plotted against log concentrations of the test compound, and the resulting IC50 values were calculated using GraphPad Prism (GraphPad Software, La Jolla, Calif.) for the test compounds. […]
This is another data set of the same source.

For experiment [4] the target is unchanged. Nature of the experiment: IM-9 cells, competition with biotinylated RHI, flow cytometry, 4 C (Table 3, same data as Table 7). As to the method:
as §4
The V-bottom plates containing cells were then analyzed on a Guava 8-HT flow cytometer (Millipore). Biotinylated-RHI binding to insulin receptor was quantitated by the median fluorescence intensity (MFI) of the cells on the FACS FL-2 channel for each concentration of the test compound. Control wells were labeled only with biotinylated-RHI and were used to calculate the percent (%) inhibition resulting from each test compound concentration. The % inhibition by test compounds of biotinylated-RHI binding on IM-9 cells was plotted against log concentrations of the test compound, and the resulting IC50 values were calculated using GraphPad Prism (GraphPad Software, La Jolla, Calif.) for the test compounds. Lower IC50 values of the test compound therefore indicate greater levels of biotinylated-RHI inhibition at lower concentrations indicating stronger binding of the insulin-Fc fusion protein to the insulin receptor. A control compound, such as unlabeled recombinant human insulin (RHI) was also used as an internal standard to generate an RHI IC50 against which a given compound IC50 could be ratioed (IC50(compound)/IC50(RHI)). […]

T1 sequence (P06213 28-1382): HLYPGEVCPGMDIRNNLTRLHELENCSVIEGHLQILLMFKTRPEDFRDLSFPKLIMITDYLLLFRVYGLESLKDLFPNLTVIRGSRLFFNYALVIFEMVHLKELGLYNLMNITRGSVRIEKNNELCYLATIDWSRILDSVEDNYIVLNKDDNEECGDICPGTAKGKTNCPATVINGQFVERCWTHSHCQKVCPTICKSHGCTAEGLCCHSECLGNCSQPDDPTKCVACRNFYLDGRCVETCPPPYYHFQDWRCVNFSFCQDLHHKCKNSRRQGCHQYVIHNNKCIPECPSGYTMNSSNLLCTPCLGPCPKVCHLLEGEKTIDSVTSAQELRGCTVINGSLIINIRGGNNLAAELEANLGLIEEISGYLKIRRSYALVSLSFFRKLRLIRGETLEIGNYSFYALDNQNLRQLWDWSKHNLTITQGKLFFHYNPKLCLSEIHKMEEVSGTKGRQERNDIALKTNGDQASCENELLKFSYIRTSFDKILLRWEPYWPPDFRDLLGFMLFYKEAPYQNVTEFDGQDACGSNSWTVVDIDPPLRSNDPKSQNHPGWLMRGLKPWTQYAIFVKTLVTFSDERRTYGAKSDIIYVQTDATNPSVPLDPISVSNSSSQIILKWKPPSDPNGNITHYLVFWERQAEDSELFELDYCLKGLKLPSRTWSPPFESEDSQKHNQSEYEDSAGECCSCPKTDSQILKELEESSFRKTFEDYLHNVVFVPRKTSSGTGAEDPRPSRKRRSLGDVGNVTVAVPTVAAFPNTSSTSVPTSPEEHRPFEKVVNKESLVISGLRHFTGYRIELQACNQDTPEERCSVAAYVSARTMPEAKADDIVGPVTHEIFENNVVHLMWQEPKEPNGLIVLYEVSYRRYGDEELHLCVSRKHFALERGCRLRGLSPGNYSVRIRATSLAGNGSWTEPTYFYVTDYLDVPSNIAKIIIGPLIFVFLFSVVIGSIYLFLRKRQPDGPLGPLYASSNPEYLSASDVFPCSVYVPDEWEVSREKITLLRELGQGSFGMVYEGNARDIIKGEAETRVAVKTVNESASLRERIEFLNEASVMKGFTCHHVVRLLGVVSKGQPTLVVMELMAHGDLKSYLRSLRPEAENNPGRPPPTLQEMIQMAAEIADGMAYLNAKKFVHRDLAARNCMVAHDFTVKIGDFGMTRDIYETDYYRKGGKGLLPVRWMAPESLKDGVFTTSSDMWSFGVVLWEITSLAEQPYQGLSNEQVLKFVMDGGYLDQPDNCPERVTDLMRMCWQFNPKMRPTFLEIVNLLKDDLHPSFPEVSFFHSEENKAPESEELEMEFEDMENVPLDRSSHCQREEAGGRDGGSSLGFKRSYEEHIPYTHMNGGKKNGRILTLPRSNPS

B1: insulin-Fc fusion protein of SEQ ID NO: 51 (insulin polypeptide SEQ ID NO: 16, linker SEQ ID NO: 25, canine IgGB Fc fragment with des hinge D and cNg-K, i.e. … (Fc fusion)
chain: FVNQHLCGSDLVEALALVCGERGFFYTDPTGGGPRRGIVEQCCHSICSLYQLENYCNGGGGAGGGGCPKCPAPEMLGGPSVFIFPPKPKDTLLIARTPEVTCVVVDLDPEDPEVQISWFVDGKQMQTAKTQPREEQFKGTYRVVSVLPIGHQDWLKGKQFTCKVNNKALPSPIERTISKARGQAHQPSVYVLPPSREELSKNTVSLTCLIKDFFPPDIDVEWQSNGQQEPESKYRTTPPQLDEDGSYFLYSKLSVDKSRWQRGDTFICAVMHEALHNHYTQESLSHSPG
notes: Non-glycosylated homodimer made in HEK293 cells; also called cNg-NB138-K
By IC50 is commonly meant the concentration needed to halve the response being measured. A high value points to a need for much substance. B1: the 50% inhibitory concentration (IC50) in experiment [1] and in experiment [2] was 147 nM throughout.

B2: insulin-Fc fusion protein of SEQ ID NO: 41 (insulin polypeptide SEQ ID NO: 16, linker SEQ ID NO: 25, canine IgGB Fc fragment SEQ ID NO: 29) (Fc fusion)
chain: FVNQHLCGSDLVEALALVCGERGFFYTDPTGGGPRRGIVEQCCHSICSLYQLENYCNGGGGAGGGGDCPKCPAPEMLGGPSVFIFPPKPKDTLLIARTPEVTCVVVDLDPEDPEVQISWFVDGKQMQTAKTQPREEQFNGTYRVVSVLPIGHQDWLKGKQFTCKVNNKALPSPIERTISKARGQAHQPSVYVLPPSREELSKNTVSLTCLIKDFFPPDIDVEWQSNGQQEPESKYRTTPPQLDEDGSYFLYSKLSVDKSRWQRGDTFICAVMHEALHNHYTQESLSHSPG
notes: Disulfide-linked homodimer made in HEK293 cells; 93% homodimer; native cNg glycosylation site kept
As to B2, the IC50 in experiment [3] and in experiment [4] was 28 nM each time.

B3: insulin-Fc fusion protein of SEQ ID NO: 47 (insulin polypeptide SEQ ID NO: 16, linker SEQ ID NO: 25, canine IgGB Fc fragment with cNg-S) (Fc fusion)
chain: FVNQHLCGSDLVEALALVCGERGFFYTDPTGGGPRRGIVEQCCHSICSLYQLENYCNGGGGAGGGGDCPKCPAPEMLGGPSVFIFPPKPKDTLLIARTPEVTCVVVDLDPEDPEVQISWFVDGKQMQTAKTQPREEQFSGTYRVVSVLPIGHQDWLKGKQFTCKVNNKALPSPIERTISKARGQAHQPSVYVLPPSREELSKNTVSLTCLIKDFFPPDIDVEWQSNGQQEPESKYRTTPPQLDEDGSYFLYSKLSVDKSRWQRGDTFICAVMHEALHNHYTQESLSHSPG
notes: Non-glycosylated homodimer made in HEK293 cells; also called cNg-NB139-S
In the case of B3, the 50% inhibitory concentration (IC50) in experiment [1] and in experiment [2] was 145 nM throughout.

B4: insulin-Fc fusion protein of SEQ ID NO: 33 (insulin polypeptide SEQ ID NO: 16, linker SEQ ID NO: 25, canine IgGA Fc fragment SEQ ID NO: 28) (Fc fusion)
chain: FVNQHLCGSDLVEALALVCGERGFFYTDPTGGGPRRGIVEQCCHSICSLYQLENYCNGGGGAGGGGRCTDTPPCPVPEPLGGPSVLIFPPKPKDILRITRTPEVTCVVLDLGREDPEVQISWFVDGKEVHTAKTQSREQQFNGTYRVVSVLPIEHQDWLTGKEFKCRVNHIDLPSPIERTISKARGRAHKPSVYVLPPSPKELSSSDTVSITCLIKDFYPPDIDVEWQSNGQQEPERKHRMTPPQLDEDGSYFLYSKLSVDKSRWQQGDPFTCAVMHETLQNHYTDLSLSHSPG
notes: Disulfide-linked homodimer made in HEK293 cells; the preparation was only 24% homodimer (highly aggregated)
With B4, the 50% inhibitory concentration (IC50) in experiment [3] and in experiment [4] was 2730 nM in each case.

B5: insulin-Fc fusion protein of SEQ ID NO: 45 (insulin polypeptide SEQ ID NO: 16, linker SEQ ID NO: 25, canine IgGD Fc fragment SEQ ID NO: 31) (Fc fusion)
chain: FVNQHLCGSDLVEALALVCGERGFFYTDPTGGGPRRGIVEQCCHSICSLYQLENYCNGGGGAGGGGCISPCPVPESLGGPSVFIFPPKPKDILRITRTPEITCVVLDLGREDPEVQISWFVDGKEVHTAKTQPREQQFNSTYRVVSVLPIEHQDWLTGKEFKCRVNHIGLPSPIERTISKARGQAHQPSVYVLPPSPKELSSSDTVTLTCLIKDFFPPEIDVEWQSNGQPEPESKYHTTAPQLDEDGSYFLYSKLSVDKSRWQQGDTFTCAVMHEALQNHYTDLSLSHSPG
notes: Homodimer made in HEK293 cells; the preparation was highly aggregated (12% homodimer)
With B5, the IC50 in experiment [4] was above 5000 nM.
